Assay results reported in patent US11224246B2, “Mineral fortification process and its uses” (SOCIETE DES PRODUITS NESTLE S.A., priority 2012, dated 2022).

What was measured:
Type in all cases: physicochemical
[1] = Copper sulphate addition to sodium caseinate solution, precipitation; conditions: 2% protein
Description: The sodium caseinate solution (2% protein) precipitated upon addition of 1.5 mM copper as copper sulphate. Again using the concept of complex II, we could add 4 mM without noticeable precipitation at pH 6.8.

[2] = Effect of phosphorus addition on soluble protein, soluble iron, turbidity and appearance of sodium caseinate solution on iron addition; conditions: without the phosphorus, FIGS. 6 and 7
Description: FIGS. 3 to 5 illustrate the effect of adding phosphorus to the complex.
FIG. 5 illustrates the advantages of the invention, wherein an increase in turbidity indicates a reduction in stability due to the formation of small particulates/precipitates.
FIGS. 6 and 7 visually illustrate how addition of phosphorus improves the solubility and stability of the complex. Even when the iron is loaded up to 25 mM, the composition remains in solution. Without the phosphorus, the protein and/or iron precipitates even at lower levels of iron (5-10 mM).

[3] = Zinc sulphate addition to sodium caseinate solution, precipitation of proteins; conditions: 2% protein solution, pH 6.8
Description: We have compared the effect of zinc sulphate addition on the precipitation of proteins in sodium caseinate using our technology.
Upon addition of zinc sulphate to sodium caseinate solution (2% protein), not more than 5 mM of zinc could be added without gross precipitation of proteins at pH 6.8.
However, as exemplified with the concept of complex II, we could add 18 mM of zinc to the sodium caseinate (2% protein solution) without any precipitation of proteins.

Substance: sodium caseinate
- Copper addition at which the solution precipitated [1]: 1.5 mM
- Iron level at which protein and/or iron precipitates [2]: 5 to 10 mM
- Zinc that could be added without precipitation of proteins [3]: not more than 5 mM
